Test results taken from patent US20240327535A1 (EISAI R AND D MANAGEMENT, published 2024).

Legend:
[1] = biological target: T1, extracellular domain of human BCMA (human, UniProt Q02223 1-54); assay: Octet BLI; Fab 200 nM
T1 construct: amine-linked to Octet AR2G tips; also called hsBCMA; BCMA (human)
T1 sequence: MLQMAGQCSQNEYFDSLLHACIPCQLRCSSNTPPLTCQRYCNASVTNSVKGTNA

[2] = biological target: T2, extracellular domain of rhesus monkey BCMA (rhesus monkey, UniProt F7FFA0 1-53); assay: Octet BLI; Fab 200 nM
T2 construct: extracellular domain; also called RhBCMA
T2 sequence (F7FFA0 entry or part of it): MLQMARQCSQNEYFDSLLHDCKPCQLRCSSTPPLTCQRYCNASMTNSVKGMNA

Row | Binder | Kd [1] [nM] | Kd [2] [nM]
1 | AB200-R1H32-R2Vk46 (Fab, V domains shown) VH: QVQLVQSGAEVKKPGSSVKVSCKASGGTFSNYWMHWVRQAPGQGLEWMGATYRSHSDTYYNQKFKSRVTITADKSTSTAYMELSSLRSEDTAVYYCARGAIYHGYDVIDNWGQGTLVTVSS VL: DIQMTQSPSSLSASVGDRVTITCRASQSISSYINWYQQKPGKAPKLLIYATSNLQIGVPSRFSGSGSGTDFTLTISSLQPEDFATYYCQQFRRLPWTFGQGTKLEIKR | 0.778 | 2.98
2 | AB200-R1H32-R2Vk20 (Fab, V domains shown) VH: QVQLVQSGAEVKKPGSSVKVSCKASGGTFSNYWMHWVRQAPGQGLEWMGATYRSHSDTYYNQKFKSRVTITADKSTSTAYMELSSLRSEDTAVYYCARGAIYHGYDVIDNWGQGTLVTVSS VL: DIQMTQSPSSLSASVGDRVTITCRASQSISSYLNWYQQKPGKAPKLLIYATSNLQSGVPSRFSGSGSGTDFTLTISSLQPEDFATYYCQQYRRIPWTFGQGTKLEIKR | 0.867 | 4.82
3 | AB200-R1H32-R2Vk2 (Fab, V domains shown) VH: QVQLVQSGAEVKKPGSSVKVSCKASGGTFSNYWMHWVRQAPGQGLEWMGATYRSHSDTYYNQKFKSRVTITADKSTSTAYMELSSLRSEDTAVYYCARGAIYHGYDVIDNWGQGTLVTVSS VL: DIQMTQSPSSLSASVGDRVTITCRASQSISSYINWYQQKPGKAPKLLIYAASSLQSGVPSRFSGSGSGTDFTLTISSLQPEDFATYYCQQFRKLPWSFGQGTKLEIKR | 1.48 | 5.5
4 | AB200-R1H32-R2Vk14 (Fab, V domains shown) VH: QVQLVQSGAEVKKPGSSVKVSCKASGGTFSNYWMHWVRQAPGQGLEWMGATYRSHSDTYYNQKFKSRVTITADKSTSTAYMELSSLRSEDTAVYYCARGAIYHGYDVIDNWGQGTLVTVSS VL: DIQMTQSPSSLSASVGDRVTITCRASQSISSYINWYQQKPGKAPKLLIYAASSLQSGVPSRFSGSGSGTDFTLTISSLQPEDFATYYCQQYRRLPWSFGQGTKLEIKR | 1.32 | 6.05
5 | AB200-R1H32-R2Vk18 (Fab, V domains shown) VH: QVQLVQSGAEVKKPGSSVKVSCKASGGTFSNYWMHWVRQAPGQGLEWMGATYRSHSDTYYNQKFKSRVTITADKSTSTAYMELSSLRSEDTAVYYCARGAIYHGYDVIDNWGQGTLVTVSS VL: DIQMTQSPSSLSASVGDRVTITCRASQSISSYINWYQQKPGKAPKLLIYAASSLQSGVPSRFSGSGSGTDFTLTISSLQPEDFATYYCQQFRKIPWTFGQGTKLEIKR | 1.52 | 6.3
6 | AB200-R1H32-R2Vk25 (Fab, V domains shown) VH: QVQLVQSGAEVKKPGSSVKVSCKASGGTFSNYWMHWVRQAPGQGLEWMGATYRSHSDTYYNQKFKSRVTITADKSTSTAYMELSSLRSEDTAVYYCARGAIYHGYDVIDNWGQGTLVTVSS VL: DIQMTQSPSSLSASVGDRVTITCRASQSISSYLNWYQQKPGKAPKLLIYATSNIQSGVPSRFSGSGSGTDFTLTISSLQPEDFATYYCQQYRRIPWTFGQGTKLEIKR | 1.04 | 5.62
7 | AB200-R1H32-R2Vk5 (Fab, V domains shown) VH: QVQLVQSGAEVKKPGSSVKVSCKASGGTFSNYWMHWVRQAPGQGLEWMGATYRSHSDTYYNQKFKSRVTITADKSTSTAYMELSSLRSEDTAVYYCARGAIYHGYDVIDNWGQGTLVTVSS VL: DIQMTQSPSSLSASVGDRVTITCRASQSISSYLNWYQQKPGKAPKLLIYATSNLQIGVPSRFSGSGSGTDFTLTISSLQPEDFATYYCQQFRKLPWSFGQGTKLEIKR | 0.882 | 5.66
8 | AB200-R1H32-R2Vk7 (Fab, V domains shown) VH: QVQLVQSGAEVKKPGSSVKVSCKASGGTFSNYWMHWVRQAPGQGLEWMGATYRSHSDTYYNQKFKSRVTITADKSTSTAYMELSSLRSEDTAVYYCARGAIYHGYDVIDNWGQGTLVTVSS VL: DIQMTQSPSSLSASVGDRVTITCRASQSISSYINWYQQKPGKAPKLLIYATSNIQSGVPSRFSGSGSGTDFTLTISSLQPEDFATYYCQQFRKLPWSFGQGTKLEIKR | 1.27 | 5
9 | AB200-R1H32-R2Vk9 (Fab, V domains shown) VH: QVQLVQSGAEVKKPGSSVKVSCKASGGTFSNYWMHWVRQAPGQGLEWMGATYRSHSDTYYNQKFKSRVTITADKSTSTAYMELSSLRSEDTAVYYCARGAIYHGYDVIDNWGQGTLVTVSS VL: DIQMTQSPSSLSASVGDRVTITCRASQSISSYLNWYQQKPGKAPKLLIYAASSLQSGVPSRFSGSGSGTDFTLTISSLQPEDFATYYCQQYRRLPWSFGQGTKLEIKR | 1.43 | 7.38
10 | AB200-R1H32-R2Vk22 (Fab, V domains shown) VH: QVQLVQSGAEVKKPGSSVKVSCKASGGTFSNYWMHWVRQAPGQGLEWMGATYRSHSDTYYNQKFKSRVTITADKSTSTAYMELSSLRSEDTAVYYCARGAIYHGYDVIDNWGQGTLVTVSS VL: DIQMTQSPSSLSASVGDRVTITCRASQSISSYLNWYQQKPGKAPKLLIYATSNLQSGVPSRFSGSGSGTDFTLTISSLQPEDFATYYCQQYRKIPWSFGQGTKLEIKR | 1.06 | 5.64
11 | AB200-R1H32-R2Vk10 (Fab, V domains shown) VH: QVQLVQSGAEVKKPGSSVKVSCKASGGTFSNYWMHWVRQAPGQGLEWMGATYRSHSDTYYNQKFKSRVTITADKSTSTAYMELSSLRSEDTAVYYCARGAIYHGYDVIDNWGQGTLVTVSS VL: DIQMTQSPSSLSASVGDRVTITCRASQSISSYLNWYQQKPGKAPKLLIYAASSLQSGVPSRFSGSGSGTDFTLTISSLQPEDFATYYCQQYRRIPWTFGQGTKLEIKR | 2.1 | 7.86
12 | AB200-R1H32-R2Vk17 (Fab, V domains shown) VH: QVQLVQSGAEVKKPGSSVKVSCKASGGTFSNYWMHWVRQAPGQGLEWMGATYRSHSDTYYNQKFKSRVTITADKSTSTAYMELSSLRSEDTAVYYCARGAIYHGYDVIDNWGQGTLVTVSS VL: DIQMTQSPSSLSASVGDRVTITCRASQSISSYINWYQQKPGKAPKLLIYAASSLQSGVPSRFSGSGSGTDFTLTISSLQPEDFATYYCQQYRKIPWSFGQGTKLEIKR | 1.43 | 7.49
13 | AB200-R1H32-R2Vk19 (Fab, V domains shown) VH: QVQLVQSGAEVKKPGSSVKVSCKASGGTFSNYWMHWVRQAPGQGLEWMGATYRSHSDTYYNQKFKSRVTITADKSTSTAYMELSSLRSEDTAVYYCARGAIYHGYDVIDNWGQGTLVTVSS VL: DIQMTQSPSSLSASVGDRVTITCRASQSISSYLNWYQQKPGKAPKLLIYATSNLQSGVPSRFSGSGSGTDFTLTISSLQPEDFATYYCQQYRRLPWSFGQGTKLEIKR | 0.946 | 4.57
14 | AB200-R1H32-R2Vk15 (Fab, V domains shown) VH: QVQLVQSGAEVKKPGSSVKVSCKASGGTFSNYWMHWVRQAPGQGLEWMGATYRSHSDTYYNQKFKSRVTITADKSTSTAYMELSSLRSEDTAVYYCARGAIYHGYDVIDNWGQGTLVTVSS VL: DIQMTQSPSSLSASVGDRVTITCRASQSISSYINWYQQKPGKAPKLLIYAASSLQSGVPSRFSGSGSGTDFTLTISSLQPEDFATYYCQQYRRIPWTFGQGTKLEIKR | 1.29 | 6.41
15 | AB200-R1H32-R2Vk4 (Fab, V domains shown) VH: QVQLVQSGAEVKKPGSSVKVSCKASGGTFSNYWMHWVRQAPGQGLEWMGATYRSHSDTYYNQKFKSRVTITADKSTSTAYMELSSLRSEDTAVYYCARGAIYHGYDVIDNWGQGTLVTVSS VL: DIQMTQSPSSLSASVGDRVTITCRASQSISSYLNWYQQKPGKAPKLLIYATSNIQSGVPSRFSGSGSGTDFTLTISSLQPEDFATYYCQQFRKLPWSFGQGTKLEIKR | 1.14 | 5.6
16 | AB200-R1H32-R2Vk16 (Fab, V domains shown) VH: QVQLVQSGAEVKKPGSSVKVSCKASGGTFSNYWMHWVRQAPGQGLEWMGATYRSHSDTYYNQKFKSRVTITADKSTSTAYMELSSLRSEDTAVYYCARGAIYHGYDVIDNWGQGTLVTVSS VL: DIQMTQSPSSLSASVGDRVTITCRASQSISSYINWYQQKPGKAPKLLIYAASSLQSGVPSRFSGSGSGTDFTLTISSLQPEDFATYYCQQFRRLPWTFGQGTKLEIKR | 1.17 | 4.54
17 | AB200-R1H32-R2Vk47 (Fab, V domains shown) VH: QVQLVQSGAEVKKPGSSVKVSCKASGGTFSNYWMHWVRQAPGQGLEWMGATYRSHSDTYYNQKFKSRVTITADKSTSTAYMELSSLRSEDTAVYYCARGAIYHGYDVIDNWGQGTLVTVSS VL: DIQMTQSPSSLSASVGDRVTITCRASQSISSYINWYQQKPGKAPKLLIYATSNLQIGVPSRFSGSGSGTDFTLTISSLQPEDFATYYCQQYRKIPWSFGQGTKLEIKR | 0.766 | 3.91
18 | AB200-R1H32-R2Vk8 (Fab, V domains shown) VH: QVQLVQSGAEVKKPGSSVKVSCKASGGTFSNYWMHWVRQAPGQGLEWMGATYRSHSDTYYNQKFKSRVTITADKSTSTAYMELSSLRSEDTAVYYCARGAIYHGYDVIDNWGQGTLVTVSS VL: DIQMTQSPSSLSASVGDRVTITCRASQSISSYINWYQQKPGKAPKLLIYATSNLQIGVPSRFSGSGSGTDFTLTISSLQPEDFATYYCQQFRKLPWSFGQGTKLEIKR | 0.92 | 3.59
19 | AB200-R1H32-R2Vk6 (Fab, V domains shown) VH: QVQLVQSGAEVKKPGSSVKVSCKASGGTFSNYWMHWVRQAPGQGLEWMGATYRSHSDTYYNQKFKSRVTITADKSTSTAYMELSSLRSEDTAVYYCARGAIYHGYDVIDNWGQGTLVTVSS VL: DIQMTQSPSSLSASVGDRVTITCRASQSISSYINWYQQKPGKAPKLLIYATSNLQSGVPSRFSGSGSGTDFTLTISSLQPEDFATYYCQQFRKLPWSFGQGTKLEIKR | 1.23 | 4.63
20 | AB200-R1H32-R2Vk23 (Fab, V domains shown) VH: QVQLVQSGAEVKKPGSSVKVSCKASGGTFSNYWMHWVRQAPGQGLEWMGATYRSHSDTYYNQKFKSRVTITADKSTSTAYMELSSLRSEDTAVYYCARGAIYHGYDVIDNWGQGTLVTVSS VL: DIQMTQSPSSLSASVGDRVTITCRASQSISSYLNWYQQKPGKAPKLLIYATSNLQSGVPSRFSGSGSGTDFTLTISSLQPEDFATYYCQQFRKIPWTFGQGTKLEIKR | 1.13 | 5.08
